The record followed here is article PMC6883073, “Unraveling Determinants of Affinity Enhancement in Dimeric Aptamers for a Dimeric Protein”.

Series [1] addresses T1, VEGF-165 (UniProt P15692-4 27-191). The series can be described thus: EMSA; PBS + 0.005% Tween 20, pH 7.4 (+50 mM KCl for aptamer B); 2.5 nM aptamer heated at 90 C and cooled, 1 h incubation (temperature not stated, RT?); 7.5% PAGE in 0.5x TB pH 8.3 at 4 C. The settings on record: protein: recombinant; tags: His-tag; chain copies: 2; label: 5' fluorescein.
Series [2] has as its target T1, VEGF-165. The series can be described thus: EMSA; middle + top bands combined; PBS + 0.005% Tween 20, pH 7.4 (+50 mM KCl for aptamer B); 2.5 nM aptamer heated at 90 C and cooled, 1 h incubation (temperature not stated, RT?); 7.5% PAGE in 0.5x TB pH 8.3 at 4 C. The settings on record: protein: recombinant; tags: His-tag; chain copies: 2; label: 5' fluorescein.
Series [3] deals with T1, VEGF-165. The series can be described thus: EMSA; top band only (1 aptamer:2 protein), apparent; PBS + 0.005% Tween 20, pH 7.4 (+50 mM KCl for aptamer B); 2.5 nM aptamer heated at 90 C and cooled, 1 h incubation (temperature not stated, RT?); 7.5% PAGE in 0.5x TB pH 8.3 at 4 C. Particulars: protein: recombinant; tags: His-tag; chain copies: 2; label: 5' fluorescein.
Series [4] addresses T1, VEGF-165. The series can be described thus: competition; displaces fA; 10 nM VEGF-165; PBS + 0.005% Tween 20, pH 7.4 (+50 mM KCl for aptamer B); 2.5 nM aptamer heated at 90 C and cooled, 1 h incubation (temperature not stated, RT?); 7.5% PAGE in 0.5x TB pH 8.3 at 4 C. The settings on record: protein: recombinant; tags: His-tag; chain copies: 2.
The target in series [5] is T1, VEGF-165. The series can be described thus: EMSA; 10 nM VEGF-165; PBS + 0.005% Tween 20, pH 7.4 (+50 mM KCl for aptamer B); 2.5 nM aptamer heated at 90 C and cooled, 1 h incubation (temperature not stated, RT?); 7.5% PAGE in 0.5x TB pH 8.3 at 4 C. The settings on record: protein: recombinant; tags: His-tag; chain copies: 2; label: 5' fluorescein.
Series [6] deals with T1, VEGF-165. The description is as above. Particulars: protein: recombinant; tags: His-tag; chain copies: 2; label: 5' fluorescein. This is another data set of the same source.
Series [7] concerns the target T1, VEGF-165. The series can be described thus: competition; displaces fC; 50 nM VEGF-165; PBS + 0.005% Tween 20, pH 7.4 (+50 mM KCl for aptamer B); 2.5 nM aptamer heated at 90 C and cooled, 1 h incubation (temperature not stated, RT?); 7.5% PAGE in 0.5x TB pH 8.3 at 4 C. Particulars: protein: recombinant; tags: His-tag; chain copies: 2.
Series [8] addresses T1, VEGF-165. The series can be described thus: EMSA; curve superimposed on AT10C; PBS + 0.005% Tween 20, pH 7.4 (+50 mM KCl for aptamer B); 2.5 nM aptamer heated at 90 C and cooled, 1 h incubation (temperature not stated, RT?); 7.5% PAGE in 0.5x TB pH 8.3 at 4 C. Particulars: protein: recombinant; tags: His-tag; chain copies: 2; label: 5' fluorescein.
The target of series [9] is VEGF-121 (UniProt P15692-9 27-147). The series can be described thus: EMSA; up to 333.3 nM VEGF-121; PBS + 0.005% Tween 20, pH 7.4 (+50 mM KCl for aptamer B); 2.5 nM aptamer heated at 90 C and cooled, 1 h incubation (temperature not stated, RT?); 7.5% PAGE in 0.5x TB pH 8.3 at 4 C. The settings on record: protein: recombinant; tags: His-tag; chain copies: 2; label: 5' fluorescein.
VEGF-121, sequence (P15692 other isoform, or with tags, fused parts or gaps): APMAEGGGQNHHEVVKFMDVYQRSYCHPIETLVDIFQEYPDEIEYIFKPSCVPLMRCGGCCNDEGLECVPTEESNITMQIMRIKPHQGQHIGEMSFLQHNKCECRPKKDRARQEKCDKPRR

T1 sequence (P15692 other isoform, or with tags, fused parts or gaps): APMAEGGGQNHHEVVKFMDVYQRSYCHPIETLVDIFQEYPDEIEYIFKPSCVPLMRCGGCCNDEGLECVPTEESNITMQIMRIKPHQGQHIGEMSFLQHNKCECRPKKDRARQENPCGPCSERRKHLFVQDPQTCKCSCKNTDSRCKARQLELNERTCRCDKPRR

B1: AT60A (structured_DNA)
DNA: GCCCGTCTTCCAGACAAGAGTGCAGGGCTTTTTTTTTTTTTTTTTTTTTTTTTTTTTTTTTTTTTTTTTTTTTTTTTTTTTTTTTTTTGCCCGTCTTCCAGACAAGAGTGCAGGGC
B1: in series [1], the Kd was found to be 7 ± 1.5 nM.

B2: AT10C (structured_DNA)
DNA: GCCCGTCTTCCAGACAAGAGTGCAGGGCTTTTTTTTTTCAATTGGGCCCGTCCGTATGGTGGGT
For B2, the results for the Kd in series [2] and in series [3] were 12.1 ± 1.9 nM and 87.3 ± 4.9 nM, respectively.

B3: AT20A (structured_DNA)
DNA: GCCCGTCTTCCAGACAAGAGTGCAGGGCTTTTTTTTTTTTTTTTTTTTGCCCGTCTTCCAGACAAGAGTGCAGGGC
B3: the Kd amounted to 5.5 ± 0.9 nM in [2] and 145 ± 11.6 nM in series [3].

B4: nfAT100 (structured_DNA)
DNA: GCCCGTCTTCCAGACAAGAGTGCAGGGCTTTTTTTTTTTTTTTTTTTTTTTTTTTTTTTTTTTTTTTTTTTTTTTTTTTTTTTTTTTTTTTTTTTTTTTTTTTTTTTTTTTTTTTTTTTTTTTTTTTT
Consider B4, for which, in series [4], the binding result was “binds”.

B5: CT20C (structured_DNA)
DNA: CAATTGGGCCCGTCCGTATGGTGGGTTTTTTTTTTTTTTTTTTTTTCAATTGGGCCCGTCCGTATGGTGGGT
On to B5, for which, in series [5], the binding signal was approximately 0.35 fraction bound.

B6: AT30C (structured_DNA)
DNA: GCCCGTCTTCCAGACAAGAGTGCAGGGCTTTTTTTTTTTTTTTTTTTTTTTTTTTTTTCAATTGGGCCCGTCCGTATGGTGGGT
B6: in series [6], the binding result was “binds”.

B7: AT20C (structured_DNA)
DNA: GCCCGTCTTCCAGACAAGAGTGCAGGGCTTTTTTTTTTTTTTTTTTTTCAATTGGGCCCGTCCGTATGGTGGGT
B7: the binding result in series [6] was “binds”.

B8: fC (SL2-B) (structured_DNA)
DNA: CAATTGGGCCCGTCCGTATGGTGGGT
As to B8, in [1], the Kd turned out to be 37.9 ± 14 nM.

B9: CT0C (structured_DNA)
DNA: CAATTGGGCCCGTCCGTATGGTGGGTCAATTGGGCCCGTCCGTATGGTGGGT
Take B9: the binding signal in series [5] was approximately 0.35 fraction bound. The Kd was 13.6 ± 2.7 nM in series [2] and 74.8 ± 3.5 nM in series [3].

B10: CT10A (structured_DNA)
DNA: CAATTGGGCCCGTCCGTATGGTGGGTTTTTTTTTTTGCCCGTCTTCCAGACAAGAGTGCAGGGC
For the molecule B10, in series [6], the binding result was “binds”.

B11: nfCT100 (structured_DNA)
DNA: CAATTGGGCCCGTCCGTATGGTGGGTTTTTTTTTTTTTTTTTTTTTTTTTTTTTTTTTTTTTTTTTTTTTTTTTTTTTTTTTTTTTTTTTTTTTTTTTTTTTTTTTTTTTTTTTTTTTTTTTT
Take B11: the binding result in series [7] was “binds”.

B12: CT0A (structured_DNA)
DNA: CAATTGGGCCCGTCCGTATGGTGGGTGCCCGTCTTCCAGACAAGAGTGCAGGGC
B12: the binding result in series [6] is “binds”.

B13: AT60C (structured_DNA)
DNA: GCCCGTCTTCCAGACAAGAGTGCAGGGCTTTTTTTTTTTTTTTTTTTTTTTTTTTTTTTTTTTTTTTTTTTTTTTTTTTTTTTTTTTTCAATTGGGCCCGTCCGTATGGTGGGT
For the molecule B13, the binding result in series [8] is “binds”.

B14: CT60C (structured_DNA)
DNA: CAATTGGGCCCGTCCGTATGGTGGGTTTTTTTTTTTTTTTTTTTTTTTTTTTTTTTTTTTTTTTTTTTTTTTTTTTTTTTTTTTTTCAATTGGGCCCGTCCGTATGGTGGGT
On to B14, for which, in series [1], the Kd stood at 22.4 ± 1 nM.

B15: AT0C (structured_DNA)
DNA: GCCCGTCTTCCAGACAAGAGTGCAGGGCCAATTGGGCCCGTCCGTATGGTGGGT
In the case of B15, in [6], the binding result is recorded as “binds”.

B16: CT30A (structured_DNA)
DNA: CAATTGGGCCCGTCCGTATGGTGGGTTTTTTTTTTTTTTTTTTTTTTTTTTTTTTTGCCCGTCTTCCAGACAAGAGTGCAGGGC
For B16, the binding result in series [6] is on record as “binds”.

B17: CT30C (structured_DNA)
DNA: CAATTGGGCCCGTCCGTATGGTGGGTTTTTTTTTTTTTTTTTTTTTTTTTTTTTTTCAATTGGGCCCGTCCGTATGGTGGGT
Consider B17, for which, in series [5], the binding signal was approximately 0.35 fraction bound.

B18: CT20A (structured_DNA)
DNA: CAATTGGGCCCGTCCGTATGGTGGGTTTTTTTTTTTTTTTTTTTTTGCCCGTCTTCCAGACAAGAGTGCAGGGC
With B18, the binding result in series [6] is given as “binds”.

B19: fA (+5'GC+3'C) (structured_DNA)
DNA: GCCCGTCTTCCAGACAAGAGTGCAGGGC
For B19, in series [9], the binding result is given as “no binding”. Besides, the Kd in series [1] was 9.9 ± 1.3 nM.

B20: CT10C (structured_DNA)
DNA: CAATTGGGCCCGTCCGTATGGTGGGTTTTTTTTTTTCAATTGGGCCCGTCCGTATGGTGGGT
On to B20, for which the binding signal in series [5] was approximately 0.35 fraction bound.
